Test results published in publication PMC10046281, “MoS2-Carbon Nanodots as a New Electrochemiluminescence Platform for Breast Cancer Biomarker Detection”.

Molecular target: HER2 (recombinant human HER2 standard) (human, UniProt P04626 23-652)
Test: electrochemiluminescence aptasensor; aptamer immobilized on MoS2-NS, BSA blocked; [Ru(bpy)3]2+/CD read-out; LOD 1.84 fg/mL (not a Kd); HER2 diluted in 10 mM phosphate buffer, 0.4 M NaCl, pH 7.4; BSA-blocked electrode; incubation temperature not given in the material
Details: protein: recombinant

B1: Apt-SH (HER2 aptamer) (ssDNA)
DNA: AACCGCCCAAATCCCTAAGAGTCTGCACTTGTCATTTTGTATATGTATTTGGTTTTTGGCTCTCACAGACACACTACACACGCACA
modifications: 5'-SH-(CH2)6 thiol
  binding result: binds
